The source of these data is patent US12528870B2, “Anti-c-Met antibody-drug conjugate and applications thereof” (REMEGEN CO., LTD., priority 2020, dated 2026).

Data set [1] has as its system advanced solid tumors / NSCLC. The following applies: cited from earlier work.
In a further data set the test system is c-Met-positive NSCLC. The following applies: cited from earlier work.
Another data set has as its target c-Met protein (Homo sapiens, UniProt P08581). As to the kind of experiment: ELISA binding ability to c-Met antigen. The following applies: c-Met protein coated at 2 μg/ml. The protocol: The c-Met protein was prepared with a diluent to a final concentration of 2 μg/ml, and added to a microplate at 100 μl per well, overnight at 4° C. The solution in the well was discarded, and the plate was washed three times with PBST. The plate was added with a blocking solution at 300 μl/well and incubated at 37° C. for 2 h. The solution in the well was discarded, and the plate was washed three times with PBST. AAJ8D6 antibody and ABT-700 (i.e., telisotuzumab, its sequence information can be found at https://extranet.who.int/soinn/mod/page/view.php?id=137&inn n=10366, the same below) were diluted to 9 concentrations, added to the 96-well plate and incubated for 2 h. The solution in the well was discarded, and the plate was washed three times with PBST. HRP detection antibody was prepared by adding diluent at a dilution of 1:5000, added at 100 μl per well, and incubated at 37° C. for 1 h. The solution in the well was discarded, and the plate was washed three times with PB ST. The plate was added with TMB color developing solution, incubated at room temperature for 2 min, and then added with Elisa stop solution.
In general terms: In an ELISA, binding on a coated surface is turned into a signal by an enzyme label.

Setting [2] is: combined administration group (with erlotinib).
Where [3] appears, read: single administration cohort, c-Met-positive NSCLC.

Where two headings read alike, the source gives them in different places.

The term EC50 denotes the concentration giving half of the maximal effect. Low values mean higher potency in that assay, high ones lower potency in that assay.

Chain of c-Met protein (P08581 25-1390): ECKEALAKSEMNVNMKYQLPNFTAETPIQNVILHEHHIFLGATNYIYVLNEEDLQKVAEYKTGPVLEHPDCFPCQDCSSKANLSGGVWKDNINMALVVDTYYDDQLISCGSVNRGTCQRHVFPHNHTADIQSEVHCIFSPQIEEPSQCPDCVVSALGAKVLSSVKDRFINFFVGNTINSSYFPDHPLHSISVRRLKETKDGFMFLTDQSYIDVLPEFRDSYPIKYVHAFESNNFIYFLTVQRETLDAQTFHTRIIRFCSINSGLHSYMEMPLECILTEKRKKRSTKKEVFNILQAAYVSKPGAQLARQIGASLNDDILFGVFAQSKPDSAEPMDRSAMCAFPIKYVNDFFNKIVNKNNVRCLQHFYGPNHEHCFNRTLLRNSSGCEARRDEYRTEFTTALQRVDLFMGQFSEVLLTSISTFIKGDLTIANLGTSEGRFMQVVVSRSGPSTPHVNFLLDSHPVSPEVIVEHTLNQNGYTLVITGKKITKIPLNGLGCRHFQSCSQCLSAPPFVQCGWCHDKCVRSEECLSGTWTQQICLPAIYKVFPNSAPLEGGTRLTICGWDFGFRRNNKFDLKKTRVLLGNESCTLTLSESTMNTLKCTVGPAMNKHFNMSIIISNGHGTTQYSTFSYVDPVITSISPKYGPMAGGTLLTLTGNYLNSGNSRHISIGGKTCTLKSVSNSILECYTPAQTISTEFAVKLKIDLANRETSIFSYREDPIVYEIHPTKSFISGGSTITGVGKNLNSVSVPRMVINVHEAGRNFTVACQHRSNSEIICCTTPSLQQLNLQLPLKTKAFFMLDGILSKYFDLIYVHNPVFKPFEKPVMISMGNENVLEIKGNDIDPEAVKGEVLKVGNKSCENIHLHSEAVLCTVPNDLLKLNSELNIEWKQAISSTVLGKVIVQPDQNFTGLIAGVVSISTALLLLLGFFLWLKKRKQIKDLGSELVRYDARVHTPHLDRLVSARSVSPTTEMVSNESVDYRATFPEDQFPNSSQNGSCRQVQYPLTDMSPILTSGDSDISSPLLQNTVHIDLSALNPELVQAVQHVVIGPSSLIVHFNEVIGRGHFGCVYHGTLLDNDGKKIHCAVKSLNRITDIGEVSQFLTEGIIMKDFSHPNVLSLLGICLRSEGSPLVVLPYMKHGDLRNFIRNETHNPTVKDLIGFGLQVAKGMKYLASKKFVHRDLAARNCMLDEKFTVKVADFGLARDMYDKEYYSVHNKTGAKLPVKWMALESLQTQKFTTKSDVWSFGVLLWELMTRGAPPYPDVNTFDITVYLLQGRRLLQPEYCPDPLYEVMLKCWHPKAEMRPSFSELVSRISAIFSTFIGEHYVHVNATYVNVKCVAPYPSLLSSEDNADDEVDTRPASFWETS

Regarding ABBV-399, the “patients who experienced partial remission” value in data set [1] (NSCLC patients with H-score ≥150) is “about 19%”. Further, the tolerated dose in data set [1] (every three weeks) is 2.7 mg/kg. Also, in data set [1] (in vivo), the “most frequently occurring toxicity: decreased appetite” value is listed as 13%, the “most frequently occurring toxicity: diarrhea” value was 10% and the “most frequently occurring toxicity: vomiting” value was 13%. For the same substance, in the data set with c-Met-positive NSCLC (NSCLC patients), the “dose at which well tolerated” value is 2.7 mg/kg. The “patients with partial remission” value in the data set with c-Met-positive NSCLC (combined administration group (with erlotinib), 1 remains to be confirmed) is reported as 4/13. Moreover, in the data set on c-Met-positive NSCLC (combined administration group (with erlotinib), after 12 weeks of treatment), the patients under control is 76.9%. In addition, in the data set with c-Met-positive NSCLC (setting [2]), the “adverse reaction: nausea, patients” value is listed as 23.1% and the “adverse reaction: neuralgia, patients” value is reported as 46.2%. Further, in the data set with c-Met-positive NSCLC (setting [3]), the “adverse reaction: fatigue, patients” value is 43.8%; the “adverse reaction: nausea (first listed), patients” value is 37.5%; the “adverse reaction: nausea (listed a second time), patients” value is reported as 18.8%. Besides, the treatment-related deaths result in the data set with c-Met-positive NSCLC (single administration group and combined administration group) is “no treatment-related deaths”. In addition, the patients under control with c-Met-positive NSCLC (single administration group, after 12 weeks of administration) is 56.3%. For the same substance, in the data set on c-Met-positive NSCLC (single administration group), the “patients who experienced partial remission” value is reported as 3/16.

Consider “ABT-700: competitor anti-c-Met antibody, i.e. telisotuzumab”, for which the “EC50” value with c-Met protein worked out at 1.33 ng/mL.
